Measurements from US20200024330A1.

Columns and labels:
Assay in all cases: cell-based or functional assay
[1] = molecular target: HIV-1 JR-CSF Env N295A (HIV-1 JR-CSF) (UniProt P20871)
[2] = molecular target: HIV-1 JR-CSF Env D325A (HIV-1 isolate JR-CSF) (UniProt P20871)
[3] = molecular target: HIV-1 JR-CSF Env N241A (HIV-1 JR-CSF) (UniProt P20871)
[4] = molecular target: HIV-1 JR-CSF Env R327A (HIV-1 isolate JR-CSF) (UniProt P20871)
[5] = molecular target: HIV-1 JR-CSF Env Q422A (HIV-1 (isolate JR-CSF)) (UniProt P20871)
[6] = molecular target: HIV-1 JR-CSF Env R419A (HIV-1 (isolate JR-CSF)) (UniProt P20871)
[7] = molecular target: HIV-1 JR-CSF Env R315A (HIV-1 isolate JR-CSF) (UniProt P20871)
[8] = molecular target: HIV-1 JR-CSF Env F317A (HIV-1 isolate JR-CSF) (UniProt P20871)
[9] = molecular target: HIV-1 JR-CSF Env I307A (HIV-1 JR-CSF) (UniProt P20871)
[10] = molecular target: HIV-1 JR-CSF Env L416A (HIV-1 (isolate JR-CSF)) (UniProt P20871)
[11] = molecular target: HIV-1 JR-CSF Env N276A (HIV-1 JR-CSF) (UniProt P20871)
[12] = molecular target: Env of all HIV-1 pseudoviruses of the cross-clade 162-pseudovirus panel (n = 162)
[13] = molecular target: HIV-1 JR-CSF Env E321aA (HIV-1 isolate JR-CSF) (UniProt P20871)
[14] = molecular target: HIV-1 JR-CSF Env N386A (HIV-1 isolate JR-CSF) (UniProt P20871)
[15] = molecular target: HIV-1 JR-CSF Env N332A (HIV-1 isolate JR-CSF) (UniProt P20871)
[16] = molecular target: HIV-1 JR-CSF Env T319A (HIV-1 isolate JR-CSF) (UniProt P20871)
[17] = molecular target: HIV-1 JR-CSF Env R304A (HIV-1 JR-CSF) (UniProt P20871)
[18] = molecular target: HIV-1 JR-CSF Env P313A (HIV-1 JR-CSF) (UniProt P20871)
[19] = molecular target: HIV-1 JR-CSF Env R350A (HIV-1 isolate JR-CSF) (UniProt P20871)
[20] = molecular target: HIV-1 Env of isolate JR-CSF (HIV-1) (UniProt P20871)
[21] = molecular target: HIV-1 Env of isolate MGRM-C-026 (HIV-1)
[22] = molecular target: HIV-1 JR-CSF Env N355A (HIV-1 isolate JR-CSF) (UniProt P20871)
[23] = molecular target: Env of the clade C HIV-1 pseudoviruses of the cross-clade 162-pseudovirus panel (n = 27)
[24] = molecular target: HIV-1 JR-CSF Env N262A (HIV-1 JR-CSF) (UniProt P20871)
[25] = molecular target: Env of the clade AG HIV-1 pseudoviruses of the cross-clade 162-pseudovirus panel (n = 10)
[26] = molecular target: HIV-1 JR-CSF Env V292A (HIV-1 JR-CSF) (UniProt P20871)
[27] = molecular target: HIV-1 JR-CSF Env Q337A (HIV-1 isolate JR-CSF) (UniProt P20871)
[28] = molecular target: HIV-1 JR-CSF Env N302A (HIV-1 JR-CSF) (UniProt P20871)
[29] = molecular target: HIV-1 JR-CSF Env I424A (HIV-1 (isolate JR-CSF)) (UniProt P20871)
[30] = molecular target: HIV-1 JR-CSF Env T297A (HIV-1 JR-CSF) (UniProt P20871)
[31] = molecular target: HIV-1 JR-CSF Env I415A (HIV-1 (isolate JR-CSF)) (UniProt P20871)
[32] = molecular target: Env of the clade B HIV-1 pseudoviruses of the cross-clade 162-pseudovirus panel (n = 31)
[33] = molecular target: HIV-1 JR-CSF Env I423A (HIV-1 (isolate JR-CSF)) (UniProt P20871)
[34] = molecular target: HIV-1 JR-CSF Env F210A (HIV-1 JR-CSF) (UniProt P20871)
[35] = molecular target: HIV-1 JR-CSF Env K421A (HIV-1 (isolate JR-CSF)) (UniProt P20871)
[36] = molecular target: HIV-1 JR-CSF Env N392Q (HIV-1 (isolate JR-CSF)) (UniProt P20871)
[37] = molecular target: Env of the clade D HIV-1 pseudoviruses of the cross-clade 162-pseudovirus panel (n = 25)
[38] = molecular target: HIV-1 JR-CSF Env S387A (HIV-1 (isolate JR-CSF)) (UniProt P20871)
[39] = molecular target: HIV-1 JR-CSF Env H330A (HIV-1 isolate JR-CSF) (UniProt P20871)

B1: PGT-131 (antibody, V domains shown)
VH: QVQLQESGPGLVKPSETLSLTCTVSGDSINTGHHYWGWVRQVPGKGPEWIAHIHYNTAVLHNPALKSRVTISIFTLKNLITLSLSNVTAADTAVYFCVRSGGDILYYIEWQKPHWFYPWGPGILVTVSS
VL: QSALTQPPSASGSLGQSLTISCSGTGSDIGSWNFVSWYQQFPGRAPNLIIFEVNRRRSGVPDRFSGSKSGNTASLTVSGLRSEDEAEYFCSSLSGRWDIVFGGGTKVTVL
In the case of B1, the Fold IC50 increase relative to wild-type [1] is reported as 2.1 fold, the Fold IC50 increase relative to wild-type [2] is reported as over 170 fold and the Fold IC50 increase relative to wild-type [3] is reported as 0.7 fold. The Fold IC50 increase relative to wild-type [4] was 19 fold, the Fold IC50 increase relative to wild-type [5] was 1.9 fold and the Fold IC50 increase relative to wild-type [6] was 1.7 fold. The Fold IC50 increase relative to wild-type [7] was 0.7 fold, the Fold IC50 increase relative to wild-type [8] was 96 fold and the Fold IC50 increase relative to wild-type [9] was over 170 fold. It also gave a Fold IC50 increase relative to wild-type [10] of 1 fold, a Fold IC50 increase relative to wild-type [11] of 0.8 fold and a Median IC50 against viruses neutralized with an IC50 <50 µg/ml [12] of 0.52 µg/mL. It also gave a Fold IC50 increase relative to wild-type [13] of 1.8 fold, a Fold IC50 increase relative to wild-type [14] of 1.1 fold and a Fold IC50 increase relative to wild-type [15] of 0.5 fold. The Fold IC50 increase relative to wild-type [16] was 0.9 fold, the Fold IC50 increase relative to wild-type [17] was 1.5 fold and the Fold IC50 increase relative to wild-type [18] was 0.52 fold. For the same binder, the Fold IC50 increase relative to wild-type [19] was 1.3 fold, the Primary Neutralization Index (B cell culture well 5136 H1) [20] was 6.2 and the Primary Neutralization Index (B cell culture well 5136 H1) [21] was 1.2. For the same binder, the Fold IC50 increase relative to wild-type [22] was 2.3 fold, the Median IC50 against viruses neutralized with an IC50 <50 µg/ml [23] was 0.78 µg/mL and the Fold IC50 increase relative to wild-type [24] was 0.4 fold. The Median IC50 against viruses neutralized with an IC50 <50 µg/ml [25] was 0.18 µg/mL, the Fold IC50 increase relative to wild-type [26] was 1.4 fold and the Fold IC50 increase relative to wild-type [27] was 1.3 fold. The Fold IC50 increase relative to wild-type [28] was 1 fold, the Fold IC50 increase relative to wild-type [29] was 4.8 fold and the Fold IC50 increase relative to wild-type [30] was 1.2 fold. It also gave a Fold IC50 increase relative to wild-type [31] of 0.6 fold, a Median IC50 against viruses neutralized with an IC50 <50 µg/ml [32] of 0.07 µg/mL and a Fold IC50 increase relative to wild-type [33] of over 80 fold. It also gave a Fold IC50 increase relative to wild-type [34] of 1 fold, a Fold IC50 increase relative to wild-type [35] of 11 fold and a Fold IC50 increase relative to wild-type [36] of 0.4 fold. For the same binder, the Median IC50 against viruses neutralized with an IC50 <50 µg/ml [37] was 0.85 µg/mL, the Fold IC50 increase relative to wild-type [38] was 1.1 fold and the Fold IC50 increase relative to wild-type [39] was 0.5 fold.

B2: PGT-135 (antibody, V domains shown)
VH: QLQMQESGPGLVKPSETLSLSCTVSGDSIRGGEWGDKDYHWGWVRHSAGKGLEWIGSIHWRGTTHYKESLRRRVSMSIDTSRNWFSLRLASVTAADTAVYFCARHRHHDVFMLVPIAGWFDVWGPGVQVTVSS
VL: EIVMTQSPDTLSVSPGETVTLSCRASQNINKNLAWYQYKPGQSPRLVIFETYSKIAAFPARFVASGSGTEFTLTINNMQSEDVAVYYCQQYEEWPRTFGQGTKVDIK
B2 showed a Fold IC50 increase relative to wild-type [1] of over 18 fold, a Fold IC50 increase relative to wild-type [2] of 0.5 fold and a Fold IC50 increase relative to wild-type [3] of 0.1 fold. The Fold IC50 increase relative to wild-type [4] was 0.67 fold, the Fold IC50 increase relative to wild-type [5] was 0.8 fold and the Fold IC50 increase relative to wild-type [6] was 3.9 fold. The Fold IC50 increase relative to wild-type [7] was 1.8 fold, the Fold IC50 increase relative to wild-type [8] was 0.5 fold and the Fold IC50 increase relative to wild-type [9] was 0.3 fold. For the same binder, the Fold IC50 increase relative to wild-type [10] was 1.2 fold, the Fold IC50 increase relative to wild-type [11] was 2.5 fold and the Median IC50 against viruses neutralized with an IC50 <50 µg/ml [12] was 0.17 µg/mL. The Fold IC50 increase relative to wild-type [13] was 0.8 fold, the Fold IC50 increase relative to wild-type [14] was 0.3 fold and the Fold IC50 increase relative to wild-type [15] was over 250 fold. The Fold IC50 increase relative to wild-type [16] was 0.4 fold, the Fold IC50 increase relative to wild-type [17] was 0.7 fold and the Fold IC50 increase relative to wild-type [18] was 0.5 fold. It also gave a Fold IC50 increase relative to wild-type [19] of 0.9 fold, a Primary Neutralization Index (B cell culture well 5343 B8) [20] of 1.8 and a Primary Neutralization Index (B cell culture well 5344 E16) [20] of 1.5. For the same binder, the Primary Neutralization Index (B cell culture well 5343 B8) [21] was 6.5, the Primary Neutralization Index (B cell culture well 5344 E16) [21] was 3.6 and the Fold IC50 increase relative to wild-type [22] was 0.8 fold. It also gave a Median IC50 against viruses neutralized with an IC50 <50 µg/ml [23] of 0.05 µg/mL, a Fold IC50 increase relative to wild-type [24] of 2.1 fold and a Median IC50 against viruses neutralized with an IC50 <50 µg/ml [25] of 27.4 µg/mL. The Fold IC50 increase relative to wild-type [26] was 2 fold, the Fold IC50 increase relative to wild-type [27] was 2.1 fold and the Fold IC50 increase relative to wild-type [28] was 0.8 fold. It also gave a Fold IC50 increase relative to wild-type [29] of 0.1 fold, a Fold IC50 increase relative to wild-type [30] of over 30 fold and a Fold IC50 increase relative to wild-type [31] of 5 fold. It also gave a Median IC50 against viruses neutralized with an IC50 <50 µg/ml [32] of 0.15 µg/mL, a Fold IC50 increase relative to wild-type [33] of 0.1 fold and a Fold IC50 increase relative to wild-type [34] of 1.3 fold. It also gave a Fold IC50 increase relative to wild-type [35] of 0.3 fold, a Fold IC50 increase relative to wild-type [36] of over 250 fold and a Median IC50 against viruses neutralized with an IC50 <50 µg/ml [37] of 1.09 µg/mL. It also gave a Fold IC50 increase relative to wild-type [38] of 0.6 fold and a Fold IC50 increase relative to wild-type [39] of over 250 fold.
